The record followed here is publication PMC8460447 (Nature chemical biology, 2021).

This experiment concerns the target neddylated CUL5 (human, UniProt Q93034 1-780, Lys724 isopeptide-linked to NEDD8). The experiment is described as follows: cryo-EM structure.

Chain of neddylated CUL5 (Q93034 whole entry): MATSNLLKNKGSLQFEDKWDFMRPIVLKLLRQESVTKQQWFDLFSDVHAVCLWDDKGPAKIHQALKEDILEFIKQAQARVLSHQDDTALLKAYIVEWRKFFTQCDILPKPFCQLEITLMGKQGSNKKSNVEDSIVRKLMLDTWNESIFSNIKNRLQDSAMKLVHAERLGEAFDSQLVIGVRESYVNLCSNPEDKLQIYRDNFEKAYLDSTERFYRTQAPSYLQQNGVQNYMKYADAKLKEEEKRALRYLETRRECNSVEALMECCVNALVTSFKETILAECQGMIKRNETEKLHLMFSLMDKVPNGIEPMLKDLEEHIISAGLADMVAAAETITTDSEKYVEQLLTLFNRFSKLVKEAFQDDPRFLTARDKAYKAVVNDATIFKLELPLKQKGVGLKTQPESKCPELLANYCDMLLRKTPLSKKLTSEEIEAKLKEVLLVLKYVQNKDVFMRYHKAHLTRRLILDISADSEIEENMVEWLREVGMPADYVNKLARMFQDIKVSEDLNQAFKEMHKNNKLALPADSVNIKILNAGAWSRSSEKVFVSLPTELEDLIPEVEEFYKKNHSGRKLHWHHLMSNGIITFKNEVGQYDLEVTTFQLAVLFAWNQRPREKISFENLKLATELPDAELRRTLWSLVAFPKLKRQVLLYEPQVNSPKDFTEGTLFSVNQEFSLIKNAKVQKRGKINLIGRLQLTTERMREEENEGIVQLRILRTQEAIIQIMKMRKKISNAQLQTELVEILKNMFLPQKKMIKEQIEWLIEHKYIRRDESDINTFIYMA

B1: RBX2 (natural protein)
chain: EDGEETCALASHSGSSGSKSGGDKMFSLKKWNAVAMWSWDVECDTCAICRVQVMDACLRCQAENKQEDCVVVWGECNHSFHNCCMSLWVKQNNRCPLCQQDWVVQRIGK
With B1, the binding result is “binds”.

B2: ARIH2* (full-length ARIH2 with L381A, E382A and E455A residue substitutions) (enzyme)
chain: MSVDMNSQGSDSNEEDYDPNCEEEEEEEEDDPGDIEDYYVGVASDVEQQGADAFDPEEYQFTCLTYKESEGALNEHMTSLASVLKVSHSVAKLILVNFHWQVSEILDRYKSNSAQLLVEARVQPNPSKHVPTSHPPHHCAVCMQFVRKENLLSLACQHQFCRSCWEQHCSVLVKDGVGVGVSCMAQDCPLRTPEDFVFPLLPNEELREKYRRYLFRDYVESHYQLQLCPGADCPMVIRVQEPRARRVQCNRCNEVFCFKCRQMYHAPTDCATIRKWLTKCADDSETANYISAHTKDCPKCNICIEKNGGCNHMQCSKCKHDFCWMCLGDWKTHGSEYYECSRYKENPDIVNQSQQAQAREALKKYLFYFERWENHNKSLQAAAQTYQRIHEKIQERVMNNLGTWIDWQYLQNAAKLLAKCRYTLQYTYPYAYYMESGPRKKLFEYQQAQLEAEIANLSWKVERADSYDRGDLENQMHIAEQRRRTLLKDFHDT
Regarding B2, the binding result was “binds”.
